B1: YB9-258 IgG (antibody, V domains shown)
VH: EVQLVESGGGLIQPGGSLRLSCAASGLTVSSNYMHWVRQAPGKGLEWVSVLYAGGSAFYADSVKGRFTISRNNSKNTLYLQMNSLRAEDTAIYYCARGLGDYLDSWGQGTLVTVSS
VL: DIQMTQSPSSVSASVGDRVTITCRASQGIGSWLAWYQQKPGKAPQLLIYAASTLQSGVPPRFSGSGSGTDFTLTITSLQPEDFASYYCQQANSVLALTFGGGTKVEIK
B2: YB13-292 IgG (antibody, V domains shown)
VH: EVQLVESGGGLVKPGGSLRLSCAASGFSFITYNMNWVRQAPGKGLEWVSSISSNILSSTSYIYYADSVKGRFTISRDDAANSLFLQMNSLRVEDTAQYYCARTRSRSVRNCTSATCPVDAFDLWGQGTMVIVSS
VL: DIVLTQSPLSLPVTPGEPASISCRSSQSLLRSNGYNYLDWYLQKPGQSPHLLIYLGSNRASGVPDRFSGSGSGTDFTLKISRVEAEDVGVYYCMQALQTPYTFGQGTNLEIK

What was measured:
SARS-CoV-2 wildtype RBD [1] = biological target: T1, SARS-CoV-2 wildtype RBD (SARS-CoV-2, UniProt P0DTC2 332-527); test: BLI
SARS-CoV-2 wildtype RBD [2] = biological target: T1, SARS-CoV-2 wildtype RBD; test: BLI; remark: listed apart in the source

Row | Binder | koff (SARS-CoV-2 wildtype RBD [1]) [s⁻¹] | Kd (SARS-CoV-2 wildtype RBD [2]) [nM]
1 | B1 | 7.7e-05 | 0.63
2 | B2 | 0.000197 | 0.39

Reference: paper PMC9951844 (2023)
